Measurements from publication doi:10.1101/781070 (bioRxiv, 2019).

Target: the molecule itself
Assay: crystal structure

B1: Drosophila melanogaster Noppera-bo (DmNobo), wild type (enzyme)
chain: MSQPKPILYYDERSPPVRSCLMLIKLLDIDVELRFVNLFKGEQFQKDFLALNPQHSVPTLVHGDLVLTDSHAILIHLAEKFDEGGSLWPQEHAERMKVLNLLLFECSFLFRRDSDFMSATVRQGFANVDVAHHERKLTEAYIIMERYLENSDFMAGPQLTLADLSIVTTLSTVNLMFPLSQFPRLRRWFTAMQQLDAYEANCSGLEKLRQTMESVGSFQFPSSSAVVTEKVE
With B1 the “stoichiometry N” value was 2.
